Measurements as given in article PMC11153153, “Membraneless channels sieve cations in ammonia-oxidizing marine archaea” (Nature, 2024).

Biological target: the molecule itself
Test: cryo-EM structure; electron cryotomography and subtomogram averaging of the S-layer on intact N. maritimus cells; 3.3 Å at the centre of the hexamer, about 4.5 Å at the periphery

B1: Nitrosopumilus maritimus S-layer protein Nmar_1547 (NmSLP) (natural protein)
chain: MAANANLFVSAENSQFDNYMSGPQVIEVVVIDSDINDTDEAKGEPDVTVNGKVLRMVQAVDGNWYGYFADRDQAQIADSTATTADSGLDFGVFCASSSGTAALGFSTTETDGIAIPITIANATATGNGTQTGSSSGGAITTTCAANTLDASTANGTINVVREAKDPVAASGSVSVGQIGLKNGTANSGPNWPFIQLYELNPTGNVVVQYNKGGGVQSTTLTFDTVDQFAELSLDRTVFPRVSQVHATITDLWLNIDPTDEDSWTFATNTKNTTSSFNVDTFYQVFDENGASGGSALTLRTTLSSLMCEDNCVLTLDVDAQSSGTPVVTIQDNGDSILTQLNASSNTNANNASAFGISTETAKLGTGSIPVTITEQGPNSGVFGTYDESDKSVLKITDNAKRGTSASLDYNETPQTILVGFSFASIDIQPVTDEWTSGQEIPVVIVDADQNKNSRADEDLDLNNPDVTLIPALRTGDPFTIDEGGTPSLIFTNGTNGDDSIFDTGAINNTSAGQVGNFTLNINVTRFSSATNITSTESIDTFSKRLISAQTANSSANFDVDFAIIDLGSATLETLKETVVDEDNTAVGFNFFNYDVRSLGADTVSIALLNTTGNILPWVNNDTRNVDKNNAILLVSNSTNSQAYVDLTNAVSDAVYGSTNTDSNVNIGFAMYFTGVGDLAAKEVIVMDFFSFGFTDDGVQSSERFANQIIRIEAEETGDNTSTFEGSLEYVMVNQINIQDAGTFSGITPIADDPSFIVIEDLTDEDAPRVNYNDLGADGVTTPVSDQEEAPSHSGVVSLNADSYKIADTVVITVEDLDLNVDSDLIDIFTVVSDNSKATDDAVGSATTQSLSFGELGRLLDVTFDDVIWSTPDGANNTATGNDSDTCSTELSNAGITDTGLGATGFTLVETGAATGVFVGDFQIPSFWCRVSDTTTTPYTYAGDEETTTGLDIEVNYVDFRDASGEIVEVGDSAGVRANTGSVSLDRTVYPVPFGTIADSSKAANAAPNGRSVFPIHATGITSTIDSTEELPTGDLTIHVRINDPDFDENPAGEDAMDQDNALKISVIRGSDSVVLGYAGASERTGKIDVGGNNGTISNIRSFGEMDEIAPDAGIFELDVNIKFTDGPASAQCNSHDTLYTALDGTTGKADTNRFDDGAASGQEYCILQGDILQVEYTDPADASGDANTVTDSATFDLRNGVLQSDKSVYIIGSDMILTLIEPDFDLDNDSAETYDLDLIEWDSDAATTTMGNKGVTGAAAAFDPEPTDFRETGDSTGIFQIVIEIPESLSNDKLERGEEIILEYTDWGPSGSDYVGDEDEDVNLTIYTSNFGATVELDQKVYSWTDKVYITIVAPDHNFDSDLVDEIGETDSDPIKVSTRGFDLDNYKLVETGTDTGIFTGEVILTGFTAHDADGDGNTGDATGTTSGSGPTDGLLATDDDDGLTVSFEFSEDETIVGSALIRWNIGEVQWLEASYPASGTGVVRVIDPDMNLDPEAVDNFEVDVWSDSDAGGIDLTVTETNEATGIFEGTVFFTTLDESSGHRLRVSEGDTVTAEYEDNTLPDPYTTADELDITATSLIGTVVPPLERAPAANLRTVDAFGNSLDSVSVDQQVQISADLANGQDREQSFAYLVQIQDANGVTVSLAWITGSLSSGQSFSPALSWIPTEAGTYTATAFVWESVDNPTALSPPVSTTVNVS
modifications: 17 N-glycans per monomer on asparagine residues followed by a threonine or serine at the +2 position (positions not given)
stoichiometry N: 6
